Measurements as given in article PMC8807876.

Biological target: TopBP1 (UniProt Q92547)
Experiment: anti-GFP nanobody IP, TopBP1 immunoblot
Conditions: reference: wild type; sites T969,S1001

binding against the reference: lost
Substance: Treslin/TICRR (from UniProt Q7Z2Z1) 2PM (T969A/S1001A)
